The values below come from patent publication US20130129763A1 (ARNE FORSGREN, published 2013).

For orientation: Kd means the constant that tells how readily two partners part at equilibrium. High values mean a looser complex, low ones a tighter complex. Usually EC50 (read off the curve) stands for the midpoint of the concentration-response curve.

Read-outs that look alike come from different tables or passages of the source.

In experiment [1] the target is UspA2 on the surface of M. catarrhalis (clinical isolates BBH18 and RH4) (Moraxella catarrhalis). As to the kind of experiment: flow cytometry on M. catarrhalis RH4 ΔuspA1 (UspA2 left on the surface) incubated with C3met: rabbit anti-C3d pAb + FITC anti-rabbit pAb; same column: wild type mfi 22.1, Δmid mfi 23.4 (both carry UspA1 and UspA2), ΔuspA1/A2 mfi 0.3. For orientation: Flow cytometry measures light scatter and fluorescence of single cells or particles in a stream.

The target of experiment [2] is UspA1 on the surface of M. catarrhalis (clinical isolates BBH18 and RH4) (Moraxella catarrhalis). Kind of experiment: flow cytometry on M. catarrhalis RH4 ΔuspA2 (UspA1 left on the surface) incubated with C3met: rabbit anti-C3d pAb + FITC anti-rabbit pAb; same column: wild type mfi 22.1, Δmid mfi 23.4 (both carry UspA1 and UspA2), ΔuspA1/A2 mfi 0.3.
Experiment [3] has as its target UspA2 on the surface of M. catarrhalis (clinical isolates BBH18 and RH4) (Moraxella catarrhalis). As to the kind of experiment: flow cytometry on M. catarrhalis RH4 ΔuspA1 (UspA2 left on the surface) incubated with EDTA-treated normal human serum: rabbit anti-C3d pAb + FITC anti-rabbit pAb; same column: wild type mfi 5.4, Δmid mfi 5.7 (both carry UspA1 and UspA2), ΔuspA1/A2 mfi 0.8.

The target in experiment [4] is UspA1 on the surface of M. catarrhalis (clinical isolates BBH18 and RH4) (Moraxella catarrhalis). Kind of experiment: flow cytometry on M. catarrhalis RH4 ΔuspA2 (UspA1 left on the surface) incubated with EDTA-treated normal human serum: rabbit anti-C3d pAb + FITC anti-rabbit pAb; same column: wild type mfi 5.4, Δmid mfi 5.7 (both carry UspA1 and UspA2), ΔuspA1/A2 mfi 0.8.

Experiment [5] concerns the target T1, Engelbreth-Holm-Swarm mouse sarcoma laminin (Sigma) (mouse, UniProt P19137 25-3083; P02469 22-1786; P02468 34-1607).
T1 construct: also called soluble laminin
As to the kind of experiment: ELISA: 40 nM protein coated, laminin 20 µg/ml, rabbit anti-laminin pAb + HRP anti-rabbit pAb. (ELISA stands for enzyme-linked immunosorbent assay.)

Experiment [6] addresses T2, fibronectin (Sigma), soluble (UniProt P02751 32-2296).
T2 construct: also called soluble fibronectin; 125I-labeled fibronectin
Kind of experiment: competition, flow cytometry: fibronectin pre-incubated with the UspA1 fragment, then M. catarrhalis added; fibronectin left bound to the bacteria detected with anti-fibronectin pAb.

The target in experiment [7] is T1, Engelbreth-Holm-Swarm mouse sarcoma …. As to the kind of experiment: ELISA: 40 nM protein coated, laminin 20 µg/ml, rabbit anti-laminin pAb + HRP anti-rabbit pAb. This is another data set of the same source.
The target in experiment [8] is T2, fibronectin (Sigma), soluble. Kind of experiment: ELISA: 40 nM fragment coated, fibronectin 80 µg/ml, rabbit anti-fibronectin pAb + HRP anti-rabbit pAb.
Experiment [9] deals with T3, methylamine-treated C3 (C3met) (human, UniProt P01024 23-667; P01024 672-1663).
T3 construct: mature; also called C3b-like molecule; [125I]-C3met
Kind of experiment: ELISA: 40 nM protein coated, C3met in solution, goat anti-human C3 pAb + HRP anti-goat pAb, background subtracted.

The target in experiment [10] is T2, fibronectin (Sigma), soluble. As to the kind of experiment: ELISA: 40 nM fragment coated, fibronectin 120 µg/ml, rabbit anti-fibronectin pAb + HRP anti-rabbit pAb.
Experiment [11] addresses T1, Engelbreth-Holm-Swarm mouse sarcoma …. Kind of experiment: ELISA: 40 nM protein coated, laminin 20 µg/ml, rabbit anti-laminin pAb + HRP anti-rabbit pAb. This is another data set of the same source.
The target in experiment [12] is T3, methylamine-treated C3 (C3met). As to the kind of experiment: SPR (Biacore 2000), UspA protein amine-coupled on CM5 chip, C3met injected, steady state affinity model; UspA2^30-539 on the chip.
The target of experiment [13] is T1, Engelbreth-Holm-Swarm mouse sarcoma …. Kind of experiment: ELISA: 40 nM UspA2 30-539 coated, soluble laminin titrated in three-fold steps 0.03-60 µg/ml, rabbit anti-laminin pAb + HRP anti-rabbit pAb.
For experiment [14] the target is unchanged. Kind of experiment: ELISA: 40 nM protein coated, laminin 20 µg/ml, rabbit anti-laminin pAb + HRP anti-rabbit pAb. The source holds these as a separate data set.

T2 sequence (P02751 other isoform, or with tags, fused parts or gaps limits assumed): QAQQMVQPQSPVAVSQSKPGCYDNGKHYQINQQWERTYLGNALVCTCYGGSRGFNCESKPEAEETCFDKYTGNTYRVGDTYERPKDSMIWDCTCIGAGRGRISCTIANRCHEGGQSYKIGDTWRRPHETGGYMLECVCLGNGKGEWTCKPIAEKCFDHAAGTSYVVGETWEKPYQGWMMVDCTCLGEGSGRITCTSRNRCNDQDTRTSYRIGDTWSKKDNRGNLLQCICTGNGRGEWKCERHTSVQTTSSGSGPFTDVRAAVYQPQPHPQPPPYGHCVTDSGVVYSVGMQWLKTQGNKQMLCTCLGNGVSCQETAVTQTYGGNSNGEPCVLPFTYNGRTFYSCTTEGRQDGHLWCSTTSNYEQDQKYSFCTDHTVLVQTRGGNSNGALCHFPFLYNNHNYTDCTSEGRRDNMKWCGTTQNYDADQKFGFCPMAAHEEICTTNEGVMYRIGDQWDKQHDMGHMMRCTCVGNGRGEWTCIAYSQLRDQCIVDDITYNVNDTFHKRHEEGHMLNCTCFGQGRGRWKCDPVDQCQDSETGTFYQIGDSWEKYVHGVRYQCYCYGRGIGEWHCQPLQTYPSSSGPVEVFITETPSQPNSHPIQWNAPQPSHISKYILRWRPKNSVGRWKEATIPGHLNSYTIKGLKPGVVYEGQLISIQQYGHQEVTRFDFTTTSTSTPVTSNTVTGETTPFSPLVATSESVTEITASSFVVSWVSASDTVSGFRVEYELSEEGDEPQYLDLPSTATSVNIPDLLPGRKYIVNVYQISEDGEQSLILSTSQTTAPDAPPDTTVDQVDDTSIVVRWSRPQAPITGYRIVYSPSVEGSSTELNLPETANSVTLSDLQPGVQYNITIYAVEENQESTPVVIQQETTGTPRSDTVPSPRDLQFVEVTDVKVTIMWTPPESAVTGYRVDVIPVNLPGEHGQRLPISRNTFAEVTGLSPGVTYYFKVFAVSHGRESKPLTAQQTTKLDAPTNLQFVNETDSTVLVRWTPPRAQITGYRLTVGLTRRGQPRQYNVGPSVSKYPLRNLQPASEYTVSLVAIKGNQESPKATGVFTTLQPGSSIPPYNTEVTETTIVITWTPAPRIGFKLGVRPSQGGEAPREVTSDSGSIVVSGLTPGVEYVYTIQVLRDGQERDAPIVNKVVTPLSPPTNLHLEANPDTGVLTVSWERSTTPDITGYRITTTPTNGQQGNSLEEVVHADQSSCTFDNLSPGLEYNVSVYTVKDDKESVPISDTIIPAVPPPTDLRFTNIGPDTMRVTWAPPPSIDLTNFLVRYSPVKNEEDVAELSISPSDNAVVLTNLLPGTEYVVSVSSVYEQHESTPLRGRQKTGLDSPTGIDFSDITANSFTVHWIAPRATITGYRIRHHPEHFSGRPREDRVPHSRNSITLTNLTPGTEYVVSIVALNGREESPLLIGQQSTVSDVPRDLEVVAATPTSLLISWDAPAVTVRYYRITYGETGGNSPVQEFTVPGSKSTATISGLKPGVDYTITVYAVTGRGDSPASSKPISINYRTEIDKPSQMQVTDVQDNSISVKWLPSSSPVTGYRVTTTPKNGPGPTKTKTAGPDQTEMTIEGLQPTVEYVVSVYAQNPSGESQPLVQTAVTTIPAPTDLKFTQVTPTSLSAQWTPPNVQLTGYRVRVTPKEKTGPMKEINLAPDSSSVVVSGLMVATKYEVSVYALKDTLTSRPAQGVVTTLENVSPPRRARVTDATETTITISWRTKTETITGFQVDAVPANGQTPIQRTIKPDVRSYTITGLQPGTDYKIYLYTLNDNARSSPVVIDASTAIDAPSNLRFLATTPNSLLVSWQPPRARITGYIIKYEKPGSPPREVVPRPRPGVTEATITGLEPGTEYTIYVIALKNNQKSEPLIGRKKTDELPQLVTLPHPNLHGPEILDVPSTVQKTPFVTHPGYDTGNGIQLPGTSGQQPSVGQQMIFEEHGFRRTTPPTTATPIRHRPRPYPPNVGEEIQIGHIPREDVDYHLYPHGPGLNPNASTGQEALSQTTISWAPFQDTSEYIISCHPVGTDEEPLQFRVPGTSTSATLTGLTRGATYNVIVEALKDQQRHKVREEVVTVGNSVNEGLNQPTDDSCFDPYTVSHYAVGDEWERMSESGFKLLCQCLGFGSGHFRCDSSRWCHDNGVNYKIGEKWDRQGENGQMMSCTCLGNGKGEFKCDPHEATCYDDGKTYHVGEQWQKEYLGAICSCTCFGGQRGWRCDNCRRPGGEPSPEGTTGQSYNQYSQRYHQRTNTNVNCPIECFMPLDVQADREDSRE
T3 sequence (P01024 23-667 limits assumed, chain 1 of 2): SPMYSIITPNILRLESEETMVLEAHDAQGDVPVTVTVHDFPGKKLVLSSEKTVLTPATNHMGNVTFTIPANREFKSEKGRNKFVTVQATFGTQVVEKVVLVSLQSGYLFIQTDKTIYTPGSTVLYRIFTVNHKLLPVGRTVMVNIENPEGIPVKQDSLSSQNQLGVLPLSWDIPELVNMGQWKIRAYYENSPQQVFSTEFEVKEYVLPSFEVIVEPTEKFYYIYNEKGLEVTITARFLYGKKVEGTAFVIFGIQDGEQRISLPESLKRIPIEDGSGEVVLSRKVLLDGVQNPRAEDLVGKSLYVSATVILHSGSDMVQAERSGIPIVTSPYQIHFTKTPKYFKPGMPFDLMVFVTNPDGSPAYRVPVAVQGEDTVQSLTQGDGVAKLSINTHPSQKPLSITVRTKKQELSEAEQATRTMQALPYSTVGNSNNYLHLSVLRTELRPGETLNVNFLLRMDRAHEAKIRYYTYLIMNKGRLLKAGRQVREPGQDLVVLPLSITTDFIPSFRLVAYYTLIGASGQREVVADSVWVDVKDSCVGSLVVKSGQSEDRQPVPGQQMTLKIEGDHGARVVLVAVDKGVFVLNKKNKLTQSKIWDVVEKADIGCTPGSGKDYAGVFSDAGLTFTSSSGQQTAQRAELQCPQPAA
T3 sequence (P01024 672-1663 limits assumed, chain 2 of 2): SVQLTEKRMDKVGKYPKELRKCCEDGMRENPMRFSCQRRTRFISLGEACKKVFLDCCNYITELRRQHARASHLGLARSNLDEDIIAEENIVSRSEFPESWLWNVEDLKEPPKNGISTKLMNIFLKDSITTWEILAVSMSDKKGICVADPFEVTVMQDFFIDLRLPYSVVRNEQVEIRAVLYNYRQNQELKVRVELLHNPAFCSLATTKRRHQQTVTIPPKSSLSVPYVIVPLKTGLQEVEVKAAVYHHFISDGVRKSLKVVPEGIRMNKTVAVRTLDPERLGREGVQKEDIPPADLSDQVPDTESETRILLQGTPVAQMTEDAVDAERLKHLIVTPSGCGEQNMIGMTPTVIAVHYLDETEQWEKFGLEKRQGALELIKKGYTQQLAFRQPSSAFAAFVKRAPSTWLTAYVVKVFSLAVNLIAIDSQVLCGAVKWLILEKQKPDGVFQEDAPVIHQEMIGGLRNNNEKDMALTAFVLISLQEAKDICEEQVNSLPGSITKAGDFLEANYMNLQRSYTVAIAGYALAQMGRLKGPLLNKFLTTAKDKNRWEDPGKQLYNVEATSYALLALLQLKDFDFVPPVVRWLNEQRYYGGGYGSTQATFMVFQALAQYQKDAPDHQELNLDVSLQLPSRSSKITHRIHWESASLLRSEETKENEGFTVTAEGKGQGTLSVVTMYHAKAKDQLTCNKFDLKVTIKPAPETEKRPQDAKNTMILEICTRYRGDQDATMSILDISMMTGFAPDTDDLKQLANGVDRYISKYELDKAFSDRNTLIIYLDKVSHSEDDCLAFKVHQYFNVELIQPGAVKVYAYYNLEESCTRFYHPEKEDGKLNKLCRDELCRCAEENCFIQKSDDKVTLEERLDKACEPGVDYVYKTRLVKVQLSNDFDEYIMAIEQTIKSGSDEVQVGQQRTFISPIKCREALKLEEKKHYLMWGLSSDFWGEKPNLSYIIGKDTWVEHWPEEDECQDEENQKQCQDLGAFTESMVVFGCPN

As for “methylamine-treated C3 (C3met) (from UniProt P01024 23-667; P01024 672-1663)”, the mfi in experiment [1] stood at 14.9; in experiment [2] it was 2.7.
With “complement C3 in normal human serum (from UniProt P01024 23-667; P01024 672-1663)”, the mfi in [3] was found to be 3.9; in experiment [4], 1.4.

B1: UspA1 454-770 (other)
recombinant truncated protein: KADLTKDIKALESNVEEGLLDLSGRLIDQKADIAKNQADIAQNQTDIQDLAAYNELQDAYAKQQTEAIDALNKASSANTDRIATAELGIAENKKDAQIAKAQANENKDGIAKNQADIQLHDKKITNLGILHSMVARAVGNNTQGVATNKADIAKNQADIANNIKNIYELAQQQDQHSSDIKTLAKVSAANTDRIAKNKAEADASFETLTKNQNTLIEQGEALVEQNKAINQELEGFAAHADVQDKQILQNQADITTNKTAIEQNINRTVANGFEIEKNKAGIATNKQELILQNDRLNRINETNNHQDQKIDQLGYAL
B1: the binding result in experiment [5] was “no binding”.

B2: recombinant UspA1^557-704 (other)
chain: NENKDGIAKNQADIQLHDKKITNLGILHSMVARAVGNNTQGVATNKADIAKNQADIANNIKNIYELAQQQDQHSSDIKTLAKVSAANTDRIAKNKAEADASFETLTKNQNTLIEQGEALVEQNKAINQELEGFAAHADVQDKQILQNQ
Turning to B2, the binding result in experiment [5] and in [6] was “no binding” throughout.

B3: recombinant UspA2^101-318 (other)
chain: LEDDVETLTKNQNAFAEQGEAIKEDLQGLADFVEGQEGKILQNETSIKKNTQRNLVNGFEIEKNKDAIAKNNESIEDLYDFGHEVAESIGEIHAHNEAQNETLKGLITNSIENTNNITKNKADIQALENNVVEELFNLSGRLIDQKADIDNNINNIYELAQQQDQHSSDIKTLKKNVEEGLLELSDHIIDQKTDIAQNQANIQDLATYNELQDQYAQK
As to B3, the binding result in [7] is on record as “no binding”.

B4: recombinant UspA2^165-318 (other)
chain: KDAIAKNNESIEDLYDFGHEVAESIGEIHAHNEAQNETLKGLITNSIENTNNITKNKADIQALENNVVEELFNLSGRLIDQKADIDNNINNIYELAQQQDQHSSDIKTLKKNVEEGLLELSDHIIDQKTDIAQNQANIQDLATYNELQDQYAQK
notes: also called UspA2^165-316; UspA2^155-318 (misprints)
As to B4, the binding result in [7] is “no binding”.

B5: recombinant UspA1^433-580 (other)
chain: KTLKNNVEEGLLDLSGRLIDQKADLTKDIKALESNVEEGLLDLSGRLIDQKADIAKNQADIAQNQTDIQDLAAYNELQDAYAKQQTEAIDALNKASSANTDRIATAELGIAENKKDAQIAKAQANENKDGIAKNQADIQLHDKKITNL
Turning to B5, the binding result in experiment [5] and in experiment [6] was “no binding” each time.

B6: recombinant UspA1^50-321 (other)
chain: KVGKATNKISGGDNNTANGTYLTIGGGDYNKTKGRYSTIGGGLFNEATNEYSTIGSGGYNKAKGRYSTIGGGGYNEATNQYSTIGGGDNNTAKGRYSTIGGGGYNEATIENSTVGGGGYNQAKGRNSTVAGGYNNEATGTDSTIAGGRKNQATGKGSFAAGIDNKANADNAVALGNKNTIEGENSVAIGSNNTVKKGQQNVFILGSNTDTTNAQNGSVLLGHNTAGKAATIVNSAEVGGLSLTGFAGASKTGNGTVSVGKKGKERQIVHVGA
B6: the binding result in experiment [5] and in [6] was “no binding” in each case.

B7: recombinant UspA2^302-458 (other)
chain: IQDLATYNELQDQYAQKQTEAIDALNKASSENTQNIEDLAAYNELQDAYAKQQTEAIDALNKASSENTQNIEDLAAYNELQDAYAKQQAEAIDALNKASSENTQNIAKNQADIANNITNLYELAQQQDKHRSDIKTLAKTSAANTDRIAKNKADDDA
Consider B7, for which the binding result in experiment [7] is listed as “no binding”.

B8: recombinant UspA1^50-197 (other)
chain: KVGKATNKISGGDNNTANGTYLTIGGGDYNKTKGRYSTIGGGLFNEATNEYSTIGSGGYNKAKGRYSTIGGGGYNEATNQYSTIGGGDNNTAKGRYSTIGGGGYNEATIENSTVGGGGYNQAKGRNSTVAGGYNNEATGTDSTIAGGR
B8: the binding result in experiment [8] and in experiment [5] was “no binding” each time.

B9: UspA2 446-539 (other)
recombinant truncated protein: TDRIAKNKADDDASFETLTKNQNTLIEKDKEHDKLITANKTAIDANKASADTKFAATADAFTKNGNAITKNAKSITDLGTKVDGFDSRVTALDT
As for B9, the binding result in experiment [9], in experiment [7] and in experiment [10] was “no binding” in each case.

B10: recombinant UspA1^50-491 (other)
chain: KVGKATNKISGGDNNTANGTYLTIGGGDYNKTKGRYSTIGGGLFNEATNEYSTIGSGGYNKAKGRYSTIGGGGYNEATNQYSTIGGGDNNTAKGRYSTIGGGGYNEATIENSTVGGGGYNQAKGRNSTVAGGYNNEATGTDSTIAGGRKNQATGKGSFAAGIDNKANADNAVALGNKNTIEGENSVAIGSNNTVKKGQQNVFILGSNTDTTNAQNGSVLLGHNTAGKAATIVNSAEVGGLSLTGFAGASKTGNGTVSVGKKGKERQIVHVGAGEISDTSTDAVNGSQLHVLATVVAQNKADIKDLDDEVGLLGEEINSLEGEIFNNQDAIAKNQADIKTLESNVEEGLLDLSGRLLDQKADIDNNINNIYELAQQQDQHSSDIKTLKNNVEEGLLDLSGRLIDQKADLTKDIKALESNVEEGLLDLSGRLIDQKADIAKNQA
notes: also called N-terminal half of UspA1
Take B10: in experiment [11], the binding result is reported as “binds”.

B11: recombinant UspA2^30-539 (M. catarrhalis Bc5) (other)
chain: QAKNDITLEDLPYLIKKIDQNELEADIGDITALEKYLALSQYGNILALEELNKALEELDEDVGWNQNDIANLEDDVETLTKNQNAFAEQGEAIKEDLQGLADFVEGQEGKILQNETSIKKNTQRNLVNGFEIEKNKDAIAKNNESIEDLYDFGHEVAESIGEIHAHNEAQNETLKGLITNSIENTNNITKNKADIQALENNVVEELFNLSGRLIDQKADIDNNINNIYELAQQQDQHSSDIKTLKKNVEEGLLELSDHIIDQKTDIAQNQANIQDLATYNELQDQYAQKQTEAIDALNKASSENTQNIEDLAAYNELQDAYAKQQTEAIDALNKASSENTQNIEDLAAYNELQDAYAKQQAEAIDALNKASSENTQNIAKNQADIANNITNLYELAQQQDKHRSDIKTLAKTSAANTDRIAKNKADDDASFETLTKNQNTLIEKDKEHDKLITANKTAIDANKASADTKFAATADAFTKNGNAITKNAKSITDLGTKVDGFDSRVTALDT
notes: also called UspA^230-539 [sic]
Consider B11, for which the equilibrium dissociation constant (Kd) in [12] came to 3000 nM. Further, the half-maximal effective concentration (EC50 (read off the curve)) in experiment [13] was around 3 µg/mL.

B12: recombinant UspA2^30-177 (other)
chain: QAKNDITLEDLPYLIKKIDQNELEADIGDITALEKYLALSQYGNILALEELNKALEELDEDVGWNQNDIANLEDDVETLTKNQNAFAEQGEAIKEDLQGLADFVEGQEGKILQNETSIKKNTQRNLVNGFEIEKNKDAIAKNNESIED
For the molecule B12, the binding result in experiment [14] is on record as “binds”; in [10], “no binding”.

B13: recombinant UspA1^680-770 (other)
chain: KAINQELEGFAAHADVQDKQILQNQADITTNKTAIEQNINRTVANGFEIEKNKAGIATNKQELILQNDRLNRINETNNHQDQKIDQLGYAL
Regarding B13, the binding result in [5] and in experiment [6] was “no binding” each time.
